Consider 4 molecules from patent publication US20190106487A1 (Sanofi, published 2019).

The EC50 is the concentration needed to bring the measured effect to its halfway point.

The chains are these.
T1: human IL-1RAcP on 293T/17-FR cells (human, UniProt Q9NPH3 21-570)
T1 sequence (looked up): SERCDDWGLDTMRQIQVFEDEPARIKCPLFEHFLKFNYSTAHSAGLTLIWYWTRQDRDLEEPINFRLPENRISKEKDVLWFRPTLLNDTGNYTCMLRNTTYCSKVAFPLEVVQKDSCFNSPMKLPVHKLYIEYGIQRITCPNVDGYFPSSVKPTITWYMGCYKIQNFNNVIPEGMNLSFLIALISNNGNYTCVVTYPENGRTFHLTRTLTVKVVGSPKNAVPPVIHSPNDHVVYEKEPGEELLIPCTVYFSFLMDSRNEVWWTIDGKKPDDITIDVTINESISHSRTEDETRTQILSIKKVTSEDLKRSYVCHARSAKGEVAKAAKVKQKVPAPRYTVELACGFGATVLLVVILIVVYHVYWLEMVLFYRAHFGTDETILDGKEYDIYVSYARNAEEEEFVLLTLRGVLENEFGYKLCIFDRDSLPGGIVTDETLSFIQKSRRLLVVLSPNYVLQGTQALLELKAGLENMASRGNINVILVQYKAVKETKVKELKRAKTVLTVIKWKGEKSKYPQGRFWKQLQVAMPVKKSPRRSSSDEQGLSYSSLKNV

T2: rhIL-1RAcP/Fc Chimera (human, UniProt Q9NPH3 21-359)
T2 construct: also called P013_03; P013-03
T2 sequence (looked up): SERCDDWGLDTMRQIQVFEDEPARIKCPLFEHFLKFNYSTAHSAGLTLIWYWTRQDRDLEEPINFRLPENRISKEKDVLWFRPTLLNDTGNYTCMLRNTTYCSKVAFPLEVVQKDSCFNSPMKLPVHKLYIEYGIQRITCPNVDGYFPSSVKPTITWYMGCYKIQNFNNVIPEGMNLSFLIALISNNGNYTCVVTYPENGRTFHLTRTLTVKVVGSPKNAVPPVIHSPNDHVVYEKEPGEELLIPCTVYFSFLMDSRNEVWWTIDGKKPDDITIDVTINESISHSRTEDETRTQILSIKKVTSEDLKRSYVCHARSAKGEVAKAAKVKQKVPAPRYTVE

T3: mIL1RAcP-Fc (murine, UniProt Q61730 21-359)
T3 construct: also called P013_04; P013-04
T3 sequence (looked up): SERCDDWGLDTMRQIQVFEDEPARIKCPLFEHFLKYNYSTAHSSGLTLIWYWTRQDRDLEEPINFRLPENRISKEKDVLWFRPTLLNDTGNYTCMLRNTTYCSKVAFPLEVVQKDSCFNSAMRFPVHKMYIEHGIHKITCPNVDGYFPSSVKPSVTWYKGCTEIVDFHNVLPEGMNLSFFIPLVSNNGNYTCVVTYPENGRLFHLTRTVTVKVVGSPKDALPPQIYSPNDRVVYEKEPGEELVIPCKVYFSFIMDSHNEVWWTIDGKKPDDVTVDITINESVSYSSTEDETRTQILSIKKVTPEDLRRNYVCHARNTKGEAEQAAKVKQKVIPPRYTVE

B1: P013.S.02.B.A05 (antibody, V domains shown)
VH: QEQLVESGGGLVQPEGSLTLTCQASGFTFSSYYVICWVRQAPGKGLEWIACIGTGDGLTYYASWAKGRFTISKTSSTTVTLQMTSLTAADTATYFCARDRYATVSGILNLWGPGTLVTVSS
VL: DVVMTQTPASVEAAVGGTVTIKCQASQNIYSNCAWYQQKLGQRPKLLIYYVSTLESGVPSRFEGSGYGTEFTLTISDLQSADAATYYCQYTYDSSSSTSWAFGGGTEVVVK
notes: rabbit monoclonal antibody; also called P013.A.00031.D11
B2: P013.S.01.B.H06 (antibody, V domains shown)
VH: LEQSGGGGEGGLVKPGGSLELCCKASGFSLSSSYWICWVRQAPGKGLEWIGCIYVGSSGSTYYASWVSGRFTLSRDIDQSTGCLQLNSLTAADTAMYYCARDIYGSTNGYDLWGQGTLVTVSS
VL: ALVMTQTPSPVSAAVGGTVTINCQASEDIYSNLAWFQQKPGQPPKLLIYQASKLASGVPSRFSGSGSGTEFTLTISGLQSDDVATYYCLGVGTYISGDGSLDNAFGGGTEVVVK
notes: rabbit monoclonal antibody; also called P013.A.00086.B03
B3: P013.S.02.B.B02 (antibody, V domains shown)
VH: LAQSGGGAEGGLVKPGGSLELCCEASGFSLSSSYWICWVRQAPGKGLEWIGCIYTGSSGNTYYASWVNGRFTLSRDIDRSTGCLQLNSLTAADTAMYYCARDANSHYMMNLWGQGTLVTVSS
VL: ALVMTQTPSPVSAAVGGTVTINCQASEDIYSNLAWFQQKPGQPPKLLIYDASTLASGVPSRFSGSGSGTEFTLTISGLQSDDAATYYCLGVYTYISADGTLVYNAFGGGTEVVVR
notes: rabbit monoclonal antibody; also called P013.A.00045.H10
B4: P013.S.02.B.B03 (antibody, V domains shown)
VH: QEQLEESGGDLVKPEGSLTLTCTASGFSFSSNYWICWVRQAPGKGLELIACIYTSTGNTWYASWAKGRFTISKTSSTTVTLQMTSLTVADTATYFCARDLLVVTSFNLWGQGTLVTVSS
VL: ALVMTQTPSPVSAAVGGTVTINCQASEDIYSNLAWFQQKPGQPPKLLIYGASTLASGVPSRFSGSGSGTEFTLTISGVQSDDAATYYCLGVCTDISTDDLYNAFGGGTELVVK
notes: rabbit monoclonal antibody; also called P013.A.00045.F11

One test has as its target T1, human IL-1RAcP on 293T/17-FR cells. As to the kind of experiment: cell-based or functional assay.
Regarding B1, the “functional reporter gene assay (% inhibition), 0.04 µg/mL mAb” value is -16%; the “functional reporter gene assay (% inhibition), 0.2 µg/mL mAb” value was 42%; the “functional reporter gene assay (% inhibition), 1 µg/mL mAb” value stood at 47%; the “functional reporter gene assay (% inhibition), 5 µg/mL mAb” value turned out to be 48%. Further, the “primary supernatant functional assay (% inh.), NF-kB luciferase reporter” value worked out at 80%.
As to B2, the “functional reporter gene assay (% inhibition), 0.04 µg/mL mAb” value was determined as 18%; the “functional reporter gene assay (% inhibition), 0.2 µg/mL mAb” value was 47%; the “functional reporter gene assay (% inhibition), 1 µg/mL mAb” value came out at 88%; the “functional reporter gene assay (% inhibition), 5 µg/mL mAb” value was found to be 96%. The “primary supernatant functional assay (% inh.), NF-kB luciferase reporter” value worked out at 91%.
As to B3, the “functional reporter gene assay (% inhibition), 0.04 µg/mL mAb” value is 26%; the “functional reporter gene assay (% inhibition), 0.2 µg/mL mAb” value was 37%; the “functional reporter gene assay (% inhibition), 1 µg/mL mAb” value turned out to be 33%; the “functional reporter gene assay (% inhibition), 5 µg/mL mAb” value was 87%. Also, the “primary supernatant functional assay (% inh.), NF-kB luciferase reporter” value turned out to be 95%.
The matching figures for B4: 17%, 31%, 78%, 89% and 94%.

Another test deals with T2, rhIL-1RAcP/Fc Chimera. As to the kind of experiment: ELISA, primary supernatant, coated hu-IL-1RAcP-Fc. An outline of the steps:
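Plates coated with 0.5 μg/mL Fc-tagged human IL-1RAcP; rabbit B-cell supernatant antibodies detected by peroxidase anti-rabbit IgG Fab2 and TMB, absorbance 450/620 nm. Parallel IL12Rβ1-Fc coating served as counterscreen to exclude tag binders.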
For orientation: In an ELISA, binding on a coated surface is turned into a signal by an enzyme label.
Consider B1, for which the “hu-IL1RaP ELISA (OD)” value was found to be 3.6 OD.
Take B2: the “hu-IL1RaP ELISA (OD)” value amounted to 3.6 OD.
In the case of B3, the “hu-IL1RaP ELISA (OD)” value is 3.4 OD.
In the case of B4, the “hu-IL1RaP ELISA (OD)” value came to 3.8 OD.

In another test the target is T2, rhIL-1RAcP/Fc Chimera. The experiment in a line: ELISA, recombinant purified mAb.
Regarding B1, the EC50 came to 0.362 µg/mL.
Turning to B2, the concentration for a half-maximal effect (EC50) amounted to 0.064 µg/mL.
On the same count and under the same terms, with B3 the figure was 0.359 µg/mL; with B4, 0.287 µg/mL.

For another test, the target named is T3, mIL1RAcP-Fc. The experiment in a line: ELISA, primary supernatant, coated mu-IL-1RAcP-Fc.
On to B1, for which the “mu-IL1RaP ELISA (OD)” value turned out to be 0 OD.
The same measure, in the same setting: under B2 stands 0 OD; under B3, -0.1 OD; under B4, -0.1 OD.
